Measured values reported in patent US9340577.
Where “and” joins values, the source holds several entries; their conditions need not be identical. Equal entries are not always repeated.

T1: H-2Kb (mouse)
T1 chain 1: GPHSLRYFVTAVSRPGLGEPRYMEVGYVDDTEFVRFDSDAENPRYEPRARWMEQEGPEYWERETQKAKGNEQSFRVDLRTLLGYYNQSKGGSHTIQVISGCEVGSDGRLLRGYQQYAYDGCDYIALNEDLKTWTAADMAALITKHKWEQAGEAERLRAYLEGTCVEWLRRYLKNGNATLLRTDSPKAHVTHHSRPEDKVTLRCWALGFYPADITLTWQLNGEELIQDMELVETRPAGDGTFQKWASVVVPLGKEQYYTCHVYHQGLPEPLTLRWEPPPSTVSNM
T1 chain 2: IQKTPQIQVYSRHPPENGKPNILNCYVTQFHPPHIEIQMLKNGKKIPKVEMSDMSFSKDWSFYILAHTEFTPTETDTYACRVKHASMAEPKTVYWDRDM


Biological target: T1, H-2Kb (mouse)
Assay: competition
Settings: modification not given

Binder	IC50
LSYSAGAL [FluA M1 117]	60 nM and 31 nM
HMWNFIGV [1476.12]	202 nM
RFYRTCKL [FluA POL1 465]	47 nM
SVYDFFVWL [F117.14]	1 nM
ASARFSWL [HBV env 329]	323 nM and 49 nM
MGLIYNRM [Flu M1 128]	16 nM and 9.9 nM
MGLKFRQL [HBV core 122]	7.4 nM and 6.3 nM
VSYVNTNM [HBV core 115]	33 nM and 60 nM
AAAAAANAAAM [F079.09]	31000 nM
VGLSYSQTM [14.0118]	71 nM
GVYQFKSV [14.0018]	11 nM
MNIQFTAV [FluA HA 403]	26 nM
SVYDFYVWM [F138.03]	1.2 nM
LGYDYSYL [16.0004]	3.4 nM
FFYRYGFV [FluA POL1 495]	350 nM
YMVPFIPL [22.0021]	70 nM

Binder	IC50
NAIVFKGL [17.0284]	484 nM
VYINTALL [FluA POL2 463]	14 nM and 65 nM
SSLPFQNI [FluA HA 305]	9.5 nM and 53 nM
VYIEVLHL [FluA POL3 227]	75 nM and 21 nM
LAVLYCLL [22.0012]	72 nM
FAPGYNPAL [1275.04]	2 nM
RTFSFQLI [Flu NS 114]	26 nM and 27 nM
VSAAFYHL [HBV pol 419]	5.2 nM and 7 nM
KNKFFSYL [22.0011]	57 nM
IVTMFEAL [14.0008]	82 nM
ISHNFCNL [14.0011]	411 nM
MITQFESL [Flu NS 31]	42 nM and 64 nM
ANFSFRNTL [16.0031]	6 nM
IGRFYIQM [FluA NP 36]	24 nM and 42 nM
KMITQRTI [FluA POL1 198]	300 nM
